One data set concerns the target c-Src SH2. Put plainly: SH2 binding enrichment of the phosphorylated peptide, bacterial display (enrichment ratio); higher = better substrate or ligand; peptides without Tyr show the background.
The target in another data set is Grb2 SH2 (UniProt P62993). The description is as above.
Another data set deals with SHP2-C SH2. The description is as above.
A further data set relates to Fer (mouse). Put plainly: phosphorylation enrichment, bacterial display (enrichment ratio); higher = better substrate or ligand; peptides without Tyr show the background.
The target in the next data set is EPHB2 (UniProt P29323). The description is as above.
Sequence of EPHB2 (P29323 whole entry, looked up): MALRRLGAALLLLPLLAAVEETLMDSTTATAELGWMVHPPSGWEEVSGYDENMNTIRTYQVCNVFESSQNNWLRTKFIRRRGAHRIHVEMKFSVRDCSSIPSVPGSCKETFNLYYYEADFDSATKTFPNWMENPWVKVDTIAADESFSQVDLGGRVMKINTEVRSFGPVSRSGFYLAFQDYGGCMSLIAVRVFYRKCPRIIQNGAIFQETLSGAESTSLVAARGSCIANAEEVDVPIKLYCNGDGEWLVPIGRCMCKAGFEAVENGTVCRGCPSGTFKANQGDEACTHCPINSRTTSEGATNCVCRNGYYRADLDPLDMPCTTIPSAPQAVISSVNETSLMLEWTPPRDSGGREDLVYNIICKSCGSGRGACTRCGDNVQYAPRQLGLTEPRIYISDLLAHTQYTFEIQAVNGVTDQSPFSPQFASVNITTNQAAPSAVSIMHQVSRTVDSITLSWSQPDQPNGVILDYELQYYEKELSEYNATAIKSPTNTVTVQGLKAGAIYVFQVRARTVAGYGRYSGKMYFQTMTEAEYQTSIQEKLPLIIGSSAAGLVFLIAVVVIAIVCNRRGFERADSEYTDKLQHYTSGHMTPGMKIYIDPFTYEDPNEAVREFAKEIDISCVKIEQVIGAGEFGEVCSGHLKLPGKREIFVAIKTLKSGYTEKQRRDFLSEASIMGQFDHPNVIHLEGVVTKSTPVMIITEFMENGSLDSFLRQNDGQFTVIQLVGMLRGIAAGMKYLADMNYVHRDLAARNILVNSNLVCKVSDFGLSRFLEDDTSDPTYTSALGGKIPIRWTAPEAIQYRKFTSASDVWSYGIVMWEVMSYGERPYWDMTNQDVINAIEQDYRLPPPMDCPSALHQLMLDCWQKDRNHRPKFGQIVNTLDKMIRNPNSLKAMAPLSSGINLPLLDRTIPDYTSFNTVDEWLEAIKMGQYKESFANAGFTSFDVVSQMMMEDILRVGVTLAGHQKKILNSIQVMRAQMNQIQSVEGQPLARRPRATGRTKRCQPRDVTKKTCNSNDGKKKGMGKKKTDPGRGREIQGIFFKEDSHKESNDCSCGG
Another data set concerns the target Fyn (UniProt P06241). The description is as above.
Another data set concerns the target MERTK (UniProt Q12866). The data set is described as above.
Another data set relates to c-Src. The description is as above.
Another data set relates to c-Abl (mouse). The data set is described as above.
Another data set addresses FGFR3 (UniProt P22607). The data set is described as above.
The target in another data set is Jak2 (UniProt O60674). Described as above.
Sequence of Jak2 (O60674 whole entry, looked up): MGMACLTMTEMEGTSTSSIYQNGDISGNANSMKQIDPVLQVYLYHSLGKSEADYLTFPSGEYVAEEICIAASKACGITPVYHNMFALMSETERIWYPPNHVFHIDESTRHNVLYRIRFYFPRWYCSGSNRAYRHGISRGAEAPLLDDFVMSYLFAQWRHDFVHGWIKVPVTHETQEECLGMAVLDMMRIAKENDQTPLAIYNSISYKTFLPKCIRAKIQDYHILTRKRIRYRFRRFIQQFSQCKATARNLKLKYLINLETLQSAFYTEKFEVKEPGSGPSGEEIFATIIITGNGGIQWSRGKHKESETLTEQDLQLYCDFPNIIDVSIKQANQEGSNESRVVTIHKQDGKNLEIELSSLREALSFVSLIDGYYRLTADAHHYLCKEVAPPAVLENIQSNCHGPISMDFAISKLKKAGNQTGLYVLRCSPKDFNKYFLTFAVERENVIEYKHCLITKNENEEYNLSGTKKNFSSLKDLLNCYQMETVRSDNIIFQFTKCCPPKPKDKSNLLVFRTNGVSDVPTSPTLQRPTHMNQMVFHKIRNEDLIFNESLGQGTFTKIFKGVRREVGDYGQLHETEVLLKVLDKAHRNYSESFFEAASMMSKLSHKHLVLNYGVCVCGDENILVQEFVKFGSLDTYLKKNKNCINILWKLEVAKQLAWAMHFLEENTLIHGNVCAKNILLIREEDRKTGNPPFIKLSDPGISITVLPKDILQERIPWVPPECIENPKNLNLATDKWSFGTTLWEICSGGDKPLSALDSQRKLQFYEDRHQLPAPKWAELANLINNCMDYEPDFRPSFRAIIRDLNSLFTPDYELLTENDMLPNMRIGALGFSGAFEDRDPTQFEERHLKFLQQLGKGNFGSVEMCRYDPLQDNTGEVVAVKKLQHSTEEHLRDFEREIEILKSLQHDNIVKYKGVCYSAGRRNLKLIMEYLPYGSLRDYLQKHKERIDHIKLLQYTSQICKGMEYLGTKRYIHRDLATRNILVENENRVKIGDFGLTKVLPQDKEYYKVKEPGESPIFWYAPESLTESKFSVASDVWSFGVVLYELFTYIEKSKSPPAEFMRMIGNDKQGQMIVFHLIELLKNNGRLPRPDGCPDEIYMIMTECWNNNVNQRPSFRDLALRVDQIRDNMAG
Another data set has as its target Fes (UniProt P07332). The description is as above.
The target of a further data set is Hck (UniProt P08631). The data set is described as above.
Sequence of Hck (P08631 whole entry, looked up): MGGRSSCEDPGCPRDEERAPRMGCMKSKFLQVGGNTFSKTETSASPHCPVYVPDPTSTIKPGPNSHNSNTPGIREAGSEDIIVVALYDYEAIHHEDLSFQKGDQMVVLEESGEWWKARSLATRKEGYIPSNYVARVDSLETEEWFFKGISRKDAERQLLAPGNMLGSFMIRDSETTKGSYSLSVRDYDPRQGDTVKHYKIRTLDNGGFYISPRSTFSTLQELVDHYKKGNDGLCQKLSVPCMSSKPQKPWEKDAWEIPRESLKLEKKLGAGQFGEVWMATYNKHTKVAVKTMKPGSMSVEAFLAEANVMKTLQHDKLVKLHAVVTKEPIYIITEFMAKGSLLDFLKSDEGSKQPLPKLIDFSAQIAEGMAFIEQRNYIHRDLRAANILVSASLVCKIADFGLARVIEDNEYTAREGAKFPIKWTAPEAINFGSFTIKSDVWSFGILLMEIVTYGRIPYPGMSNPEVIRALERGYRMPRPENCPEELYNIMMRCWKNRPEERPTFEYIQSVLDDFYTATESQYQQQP
For another data set, the target named is EPHB1 (UniProt P54762). The data set is described as above.
Another data set has as its system AncSZ. Described as above.
In a further data set the target is FGFR1 (UniProt P11362). Described as above.
Sequence of FGFR1 (P11362 whole entry, looked up): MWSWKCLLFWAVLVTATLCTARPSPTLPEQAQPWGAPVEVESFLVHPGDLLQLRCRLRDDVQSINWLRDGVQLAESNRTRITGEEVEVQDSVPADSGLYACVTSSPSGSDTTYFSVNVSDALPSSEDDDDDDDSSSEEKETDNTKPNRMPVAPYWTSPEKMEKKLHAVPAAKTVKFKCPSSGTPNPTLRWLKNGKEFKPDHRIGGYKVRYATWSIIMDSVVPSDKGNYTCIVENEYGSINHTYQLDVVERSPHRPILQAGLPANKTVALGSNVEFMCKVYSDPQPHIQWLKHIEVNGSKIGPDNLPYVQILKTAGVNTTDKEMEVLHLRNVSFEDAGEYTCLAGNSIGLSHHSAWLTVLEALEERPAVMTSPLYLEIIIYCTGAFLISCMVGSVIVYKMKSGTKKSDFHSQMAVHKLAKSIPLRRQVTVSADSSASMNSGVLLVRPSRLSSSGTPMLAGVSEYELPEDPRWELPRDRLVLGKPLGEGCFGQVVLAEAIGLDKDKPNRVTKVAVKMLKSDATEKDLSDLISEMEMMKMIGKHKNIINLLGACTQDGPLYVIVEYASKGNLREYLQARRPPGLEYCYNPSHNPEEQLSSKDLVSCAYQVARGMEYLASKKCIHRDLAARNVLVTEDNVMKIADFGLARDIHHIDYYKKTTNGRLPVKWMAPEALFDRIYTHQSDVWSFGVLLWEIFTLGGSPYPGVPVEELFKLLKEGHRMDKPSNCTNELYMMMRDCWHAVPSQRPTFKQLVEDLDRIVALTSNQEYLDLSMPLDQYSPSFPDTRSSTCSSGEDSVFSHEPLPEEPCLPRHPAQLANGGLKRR

This is an account of results in the supplement of paper PMC10065799, “High-throughput profiling of sequence recognition by tyrosine kinases and SH2 domains using bacterial peptide display” (eLife, 2023).
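Throughout, for SH2 binding enrichment of the phosphorylated peptide, bacterial display: peptide library displayed on the E. coli surface as eCPX fusions, selected cells deep-sequenced, score is each peptide's frequency after selection divided by its frequency in the input.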
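Throughout, for phosphorylation enrichment, bacterial display: 11-residue human phosphosite peptides and single-mutation variants displayed on the E. coli surface, counted by deep sequencing, each peptide's frequency after selection divided by its frequency in the unselected input library; frequency after pTyr selection over input frequency; kinase dosed for 20-30% of maximal phosphorylation in three min.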

Sequence of Fyn (P06241 whole entry, looked up): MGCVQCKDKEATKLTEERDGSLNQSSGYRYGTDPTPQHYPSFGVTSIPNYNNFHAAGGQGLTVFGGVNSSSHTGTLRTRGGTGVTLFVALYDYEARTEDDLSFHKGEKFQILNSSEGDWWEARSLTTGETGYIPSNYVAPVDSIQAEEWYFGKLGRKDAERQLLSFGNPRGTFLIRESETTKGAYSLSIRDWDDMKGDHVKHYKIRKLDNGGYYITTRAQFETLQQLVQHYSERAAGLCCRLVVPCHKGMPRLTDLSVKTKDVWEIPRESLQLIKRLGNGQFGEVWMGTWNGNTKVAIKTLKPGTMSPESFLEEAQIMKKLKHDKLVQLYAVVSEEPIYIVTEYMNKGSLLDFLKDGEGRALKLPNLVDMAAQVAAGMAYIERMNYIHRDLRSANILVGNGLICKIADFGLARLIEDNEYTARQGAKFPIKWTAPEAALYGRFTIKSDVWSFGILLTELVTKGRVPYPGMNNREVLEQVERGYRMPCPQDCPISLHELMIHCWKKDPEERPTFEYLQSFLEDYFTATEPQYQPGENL
Sequence of Fes (P07332 whole entry, looked up): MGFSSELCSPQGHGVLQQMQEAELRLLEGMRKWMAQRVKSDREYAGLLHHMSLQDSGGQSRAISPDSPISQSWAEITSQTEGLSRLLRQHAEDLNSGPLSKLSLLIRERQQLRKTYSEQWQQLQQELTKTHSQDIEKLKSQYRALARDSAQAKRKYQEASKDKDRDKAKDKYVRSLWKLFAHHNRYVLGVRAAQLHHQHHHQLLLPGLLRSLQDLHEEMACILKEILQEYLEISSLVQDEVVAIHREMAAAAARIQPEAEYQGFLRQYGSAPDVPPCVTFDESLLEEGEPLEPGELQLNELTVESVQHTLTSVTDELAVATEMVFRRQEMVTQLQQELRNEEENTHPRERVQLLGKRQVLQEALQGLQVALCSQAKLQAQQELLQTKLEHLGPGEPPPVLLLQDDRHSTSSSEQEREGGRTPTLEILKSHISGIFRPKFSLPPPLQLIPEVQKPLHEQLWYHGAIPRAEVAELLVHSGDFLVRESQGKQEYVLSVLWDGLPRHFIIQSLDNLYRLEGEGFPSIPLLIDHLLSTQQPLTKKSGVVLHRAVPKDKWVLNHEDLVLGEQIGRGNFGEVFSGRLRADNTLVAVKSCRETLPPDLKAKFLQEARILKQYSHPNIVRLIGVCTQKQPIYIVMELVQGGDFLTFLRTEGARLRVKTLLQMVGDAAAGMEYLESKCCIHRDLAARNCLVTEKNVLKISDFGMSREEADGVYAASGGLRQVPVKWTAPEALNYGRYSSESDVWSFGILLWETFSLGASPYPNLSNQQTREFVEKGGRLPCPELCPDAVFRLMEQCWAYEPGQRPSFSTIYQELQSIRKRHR

As for ELTSKYRGGGG [HBA1_Y141_V136E], the results for the SH2 binding enrichment with c-Src SH2, with Grb2 SH2 and with SHP2-C SH2 were 0.469, 0.939 and 0.725, respectively. The phosphorylation enrichment in the data set on Fer (mouse) was found to be 0.313; with EPHB2, 0.385; with Fyn, 0.353; with MERTK, 0.503; in the data set with c-Src it was 0.434; in the data set on c-Abl (mouse), 0.471. In addition, the phosphorylation enrichment is 0.411 with FGFR3; 0.678 in the data set with Jak2; 0.573 in the data set with Fes; 0.422 with Hck; 0.412 with EPHB1; 0.515 in the data set with AncSZ. Besides, the phosphorylation enrichment with FGFR1 is 0.333.

In the case of EMFNPYYGLFE [NEDD4L_Y679], the SH2 binding enrichment with c-Src SH2 is 1.06; with Grb2 SH2 it was 1.17; with SHP2-C SH2 it was 0.855. Also, the phosphorylation enrichment worked out at 6.32 with Fer (mouse); 5.92 with EPHB2; 8.62 with Fyn; 6.86 with MERTK; 6.95 with c-Src; 2.2 in the data set on c-Abl (mouse). Also, the phosphorylation enrichment was found to be 4.84 with FGFR3; 6.66 in the data set with Jak2; 1.64 with Fes; 7.91 in the data set with Hck; 5.74 with EPHB1; 2.04 in the data set with AncSZ. Also, in the data set with FGFR1, the phosphorylation enrichment is 5.41.

Regarding EMTAEYACTRK [ACAD9_Y325], the SH2 binding enrichment with c-Src SH2 worked out at 0.692; in the data set with Grb2 SH2, 1.22; with SHP2-C SH2, 1.03. For the same sequence, the phosphorylation enrichment in the data set on Fer (mouse) came to 0.497; with EPHB2, 0.492; with Fyn it was 0.434; in the data set with MERTK, 0.457; with c-Src, 0.412; in the data set with c-Abl (mouse) it was 0.603. Besides, the phosphorylation enrichment in the data set with FGFR3 was found to be 0.551; with Jak2, 0.499; with Fes, 0.706; in the data set with Hck, 0.627; with EPHB1 it was 0.406; in the data set on AncSZ it was 0.703. Moreover, in the data set with FGFR1, the phosphorylation enrichment amounted to 0.397.

As for ENFDDYMKEVG [FABP4_Y20], the SH2 binding enrichment with c-Src SH2 turned out to be 0.802; in the data set with Grb2 SH2 it was 1.04; in the data set with SHP2-C SH2, 0.791. Moreover, the phosphorylation enrichment was 0.687 in the data set on Fer (mouse); 0.623 with EPHB2; 0.496 in the data set with Fyn; 0.396 with MERTK; 0.539 in the data set on c-Src; 0.707 in the data set with c-Abl (mouse). In addition, the phosphorylation enrichment with FGFR3 came to 0.699; in the data set with Jak2, 1.06; with Fes, 1.22; with Hck it was 0.527; with EPHB1, 0.579; in the data set with AncSZ it was 1.23. In addition, the phosphorylation enrichment in the data set with FGFR1 turned out to be 0.569.

On to ENFSEYQEIAV [HEMGN_Y150], for which the SH2 binding enrichment in the data set with c-Src SH2 came out at 0.627; in the data set with Grb2 SH2, 0.98; in the data set with SHP2-C SH2, 0.663. For the same sequence, the phosphorylation enrichment turned out to be 1.4 in the data set with Fer (mouse); 1.24 in the data set with EPHB2; 0.586 in the data set with Fyn; 0.507 with MERTK; 0.616 with c-Src; 0.957 with c-Abl (mouse). Also, the phosphorylation enrichment with FGFR3 amounted to 1.38; with Jak2, 1.28; in the data set with Fes it was 1.24; with Hck, 0.984; in the data set with EPHB1, 2.29; in the data set with AncSZ, 1.51. Besides, the phosphorylation enrichment with FGFR1 turned out to be 1.59.

Take ENFSEYQEISV [HEMGN_Y150_A154S]: the SH2 binding enrichment with c-Src SH2 came to 0.617; with Grb2 SH2 it was 0.827; with SHP2-C SH2, 0.749. Also, the phosphorylation enrichment came to 1.42 in the data set on Fer (mouse); 1.46 with EPHB2; 0.594 in the data set with Fyn; 0.659 with MERTK; 0.873 in the data set with c-Src; 0.965 with c-Abl (mouse). Further, the phosphorylation enrichment in the data set with FGFR3 is 1.53; with Jak2 it was 1.14; in the data set with Fes it was 1.39; in the data set with Hck it was 0.987; with EPHB1, 2.45; in the data set on AncSZ, 1.59. Further, in the data set with FGFR1, the phosphorylation enrichment was 1.89.

For the sequence EPYKVYRIVPE [IRF8_Y110], the SH2 binding enrichment with c-Src SH2 was 0.598; with Grb2 SH2, 0.762; with SHP2-C SH2, 0.646. In addition, the phosphorylation enrichment with Fer (mouse) was determined as 0.447; in the data set with EPHB2, 0.54; in the data set with Fyn it was 0.641; in the data set with MERTK, 0.462; with c-Src it was 0.605; with c-Abl (mouse) it was 0.473. Further, the phosphorylation enrichment came to 0.612 in the data set with FGFR3; 0.658 with Jak2; 0.728 with Fes; 0.574 with Hck; 0.474 with EPHB1; 0.746 in the data set on AncSZ. Moreover, the phosphorylation enrichment with FGFR1 stood at 0.521.

With EQLQSYQAEII [KRT33A_Y268], the SH2 binding enrichment with c-Src SH2 stood at 0.472; with Grb2 SH2, 0.708; with SHP2-C SH2 it was 0.683. The phosphorylation enrichment stood at 0.526 in the data set with Fer (mouse); 0.571 in the data set with EPHB2; 0.516 in the data set with Fyn; 0.45 in the data set with MERTK; 0.555 with c-Src; 0.988 in the data set with c-Abl (mouse). In addition, the phosphorylation enrichment amounted to 0.821 with FGFR3; 1.15 in the data set with Jak2; 1.16 with Fes; 0.518 in the data set with Hck; 0.524 with EPHB1; 1.12 in the data set with AncSZ. In the data set with FGFR1, the phosphorylation enrichment turned out to be 0.54.
